Measurements published in article PMC2928010.
Like-named read-outs stand apart in the source and are kept apart here.

Key:
[1] = biological target: RNC–SRP: coumarin-labeled SRP C235 loaded with ribosome–nascent chain complex (E. coli) (UniProt P0AGD7); test: FRET or BRET
[2] = biological target: RNC–SRP: coumarin-labeled SRP C235 loaded with ribosome–nascent chain complex (E. coli) (UniProt P0AGD7); test: FRET or BRET; remark: listed apart in the source
[3] = biological target: acrylodan-labeled FtsY C356 (E. coli) (UniProt P10121); test: other fluorescence titration
[4] = biological target: acrylodan-labeled FtsY C356 (E. coli) (UniProt P10121); test: other fluorescence titration; remark: listed apart in the source

Substance “BODIPY-fluorescein–labeled FtsY C487 (from UniProt P10121 1-497) (receptor)” has a Kd [1] of 68 nM and a Kd [2] of 104 nM.
“signal recognition particle (SRP): Ffh with 4.5S RNA (from UniProt P0AGD7 1-453) (complex)” showed a Kd [3] of 145 nM and a Kd [4] of under 4 nM.
